The values below come from publication PMC11798926 (2024).

To fix the notation:
B1: myc-tagged SynDIG4 (wild type) [rat] / HA-tagged μ2 AP subunit [not stated] (parent complex)
chain 1: MSSEKSGLPDSVPHTSPPPYNAPQPPAEPPIPPPQTAPSSHHHHHHHYHQSGTATLPRLGAGGLASAAAGAQRGPSSSATLPRPPHHAPPGPAAGAPPPGCATLPRMPPDPYLQETRFEGPLPPPPPAAAAPPPPAPAPTAQAPGFVVPTHAGAVGTLPLGGYVAPGYPLQLQPCTAYVPVYPVGTPYASGTPGGPGVTSTLPPPPQGPGLALLEPRRPPHDYMPIAVLTTICCFWPTGIIAIFKAVQVRTALARGDLVSAEIASREARNFSFISLAVGIAAMVLCTILTVVIIIAAQHHENYWDP
chain 2: MIGGLFIYNHKGEVLISRVYRDDIGRNAVDAFRVNVIHARQQVRSPVTNIARTSFFHVKRSNIWLAAVTKQNVNAAMVFEFLYKMCDVMAAYFGKISEENIKNNFVLIYELLDEILDFGYPQNSETGALKTFITQQGIKSQHQTKEEQSQITSQVTGQIGWRREGIKYRRNELFLDVLESVNLLMSPQGQVLSAHVSGRVVMKSYLSGMPECKFGMNDKIVIEKQGKGTADETSKSGKQSIAIDDCTFHQCVRLSKFDSERSISFIPPDGEFELMRYRTTKDIILPFRVIPLVREVGRTKLEVKVVIKSNFKPSLLAQKIEVRIPTPLNTSGVQVICMKGKAKYKASENAIVWKIKRMAGMKESQISAEIELLPTNDKKKWARPPISMNFEVPFAPSGLKVRYLKVFEPKLNYSDHDVIKWVRYIGRSGIYETRC

Variants of B1 are the subject of this assay. Put plainly: co-immunoprecipitation (IP: HA, blot: myc), quantified; HEK293T cells; second bar chart of panel D (SD4 vs AMPA); parent: 100; read off a plot.
On to chain 1 Y223A, chain 1 I226A, for which the percent of parent is around 65 %SD4.
